Source: the DeepSol protein solubility set

Experiment: soluble on expression in E. coli; label from the status in PepcDB or PDB records
For “GPGSMEFSGSTLSVVEVEHTVRQLRPFPLQDIGTAEWKNQREAVERLNMCTHSNAVLKKDDTVKAFLIEHEKLPVLLHELLVMEVWRQRVLPLIKDQIVQHPAGIYMYVQYEMVLLNLFECIAFHEEVVVALDEDVLELIDYCWRQASRLFAEQNVNEVQSKPTARDVSNAANTVEEVLKSADRQMLHAIYQRAMASLSILWFIIDRLNQLPLAASNSVLVKNDLILGLTEVMLLQPWLRRSSEATQKFFNGEFKDIPRADVLLVCTPEAHTWFSLHKLLCDPECRRRYSYTQSKKELILRIRHFLNDTLVDQIPALASLQRALEELSFLQPPSGTEEKFKSTLTIEQVPRIMTLVEVERKGSWDDLASTLRAMLQDPSVRNEDAMRLSRIFDEMFSDQLK”, the “soluble on expression in E. coli” value was “not soluble”.
For “GPGSMENKLLSAPQNTVNPIIEKKRVVSCGMCEVDTTKLLEELRKVKENLSEVIDECIFLENQCEMTEKRLKSELLDRDKRIADISSALMEMVKYTSLLERQVIASAFTTLGSAMKRAPAIDMCRNISLREVASAVRERGESSGSRSSAKRKTRNGALYSEAKMAEEKNAFLLSVDEACALVNGLLREKVNLAAKIGEVAFHVNNAIARGERTSPALPDASSENVDDLHQSILNLTKQLSACGNEGDEEKNLKQVPSQHTAETEEPRQPQGLIAEKEDNTSRPQSPSQTQPPAGLASLGPHILDISRSSLPAVSITTQKGEGECGDITTESLVKKLAAAEEKCMAVEKQSRREREELHAELAYLRNSSREEKEEYNTLIERLTVELEILVAENAVMRKRIKGRKHSRDKIE”, the “soluble on expression in E. coli” value was “not soluble”.
With “GPGSMEPNFFNNSGLMLLCKDGSAVRAIDVLKDAEYVLMYFSAHWCPPCRTFTPMLKSFYETHHAKKKFEVVFMSSDRSEEEMMSYFRESHGDYYCLPYADARSMARVWGDTYKFKTIPTLLVFENANPRKLIARCGREMVIKDPLGNLFPWPDADAQQPAESFIFDYTRKAAIVLGISVLLYSLISRSL” the “soluble on expression in E. coli” value was “not soluble”.
For “GPGSMGQHSAKEFRGSRRGESNSGVFPLGPGHAHVGMGSTKKPLGIHTSAVQNNVLRQRNQHRRVMHEEGGSHPRGQEADGSHGEDIAEEKFPVVIRYAAHDVRSLLSSNEKVYVAVESLNWSKLPMTASEDSFYAIVELPQGPQRFRFVVGETEVVDTAQPIEDIAEGTPLLEPRGDVGHKGETRANVIHVNKALLLTKEDEEVPDDGSGWGQEEIIHKEDRKHPPIMPVHLRYTPVNTPLTAARCALDGFMRTTDEDTVSPENLPIPLSVTVNHVYFQRREDHCVTAMTTRFCNKYSTMVYYSKAEPTASLQ”, the “soluble on expression in E. coli” value was “not soluble”.
In the case of “GPGSMGRASKDKRDIYYRKAKEEGYRARSAYKLLQIHEEFNILDPAEIRTGAVDLCAAPGSWSQVLAQHFKMISANLTAASEGDSLPAQTPRVVAVDLQEMAPIDGVTLLQGDITSEVTAREIIRLLNAPTSTGVVRTDDEQQQPQPASSSFSSSAPSPALGASPRKADIVLCDGAPDVTGMHELDEYLQHHLLLAALHITTFVLRAGGCFLTKIFRGPNTAFLVAKSQLFFQQVRVVKPKSSRNASMESFLLCQGFRMPLGYVPRFVGAAAPAAASSATTGCSRGAASASAGCGSRVEADNEEGVKGERSETAIGSGGPLRASGFTPEAPLYCYDTTASFSHASDGGAAAAATVHDVAHHNQRTSCTLADGVLAPFLSCGDLSGFDADMCYDRDEDADVLEPVQPPLQAPYLAAAAASPSQLAGVADGRDTEADASQKKKIRVESPTAIAGRDSSTGGEEQQ”, the “soluble on expression in E. coli” value is reported as “not soluble”.
For “GPGSMHLSELCRDSNIDVIIARLRQVAPLEPAPAFSLSEGAADDDTTPATGHSDFHGLWSYQDNDGRTAFHWAIALKNFDLARKLMQAPYNSPVLTEDEEWSTPFATACSVGAPLDLLREILDRSVVELAAHMKQKETQQNPTSEEQNSSSAAVTEPAEGSSDGKPTKFLSDMPGILQPVDGTPASISAVLVDAEDATGQTPLLLAVGRGHLSIVRFLLENGANLMHQNRRGQSCLHRAVNRGNMELVEFLVSTSENNAKSKAVHRVWMDLRDKHGDSALFYASMDNNEEIGRYLLRHGADRELRNADGKAFWEV”, the “soluble on expression in E. coli” value was “soluble”.
For “GPGSMIARAIANRAACTFLNISSSSLMSKWMGDGEKLVRCLFAVATVKQPSVIFIDEIDSLLSMRGEGETDSVRRVKTEFLVQLDGVATDRGDRVLLIGATNRPDELDEAARRRMEKRLYIPLPDEAARRELIQRLLKSLGPSEAGEDGAIGNAGEAASTATATTTTQVTHTLTDADLDTLVRSTDGYSGADLKQLCREAAMGPLREMSIMQLSAVAAADLRPVQRKDFRQALKRLKPSVGPAEVQRYVEWNKLFGSFNEHDDDDDDELEHHEGHGAC”, the “soluble on expression in E. coli” value was “soluble”.
In the case of “GPGSMIGAPWPPEAVFGNTVDRVASPAPVPERKISIADQLHLPLSRFVEKMSWGEKRRVQILHGMLYPATVYLLDECSTDIDVAERRTVLELVRQECEAKDGCCVYATHIFDGIEGWATHLLLMEGGRVVDFKAVEKLTLPLEDYALQFMSKRAHAARGVDGVAAASLSHGSSAAISTTSPACPTTAAAACPTSATTDAPVTYWPRGHADEKRSEIVINCAQLNYKDVFKNLSFQVFRGERVLLCGGNGTGKSTLLNMLGGKQFFDNRQGSLSVLGKRCYDDMLLNALVSYGGDWWTAVPGGEVHVREMLQLRTSRAERLCEMLAVDMDWDVRHISAGEQKRVQLLLHLLDDKPVVLLDEATTDLDVYQRHSLLQFLYEESVQRGVTVVYSTHIFGGVEGWANVVVLLDRTVRGVHAVWRASEGQPIVLQRVVDAIVSLKAREVF”, the “soluble on expression in E. coli” value is reported as “not soluble”.
For “GPGSMKKCWVFDCAAPGLYCEPRRLLKPFSTDSILDAAGRAFETVEDGLKATTWRTHHAFSARCGLTSVTRSDSTTCGKGVEESSVSRSPEDYREWHADFHLRSPSAEPHVLLSVAPHYLPSRGSGNADDGRKMEVVGSRGRWLKPWRPQTAEEQAAYDAAVLGTPLIWEEPLVLSLDCTADGVFLWSEDHGIYGEKVANRCFERHSSDAGDDSAEFKQEAFLRFRWSEQPPAQTSSVGSGRHEMKEEHVESPNVSKCGELRVFRGQRTKVEAEEPHVERISYEEADVDAGSGGFLWQSVLHRIISCGPVPKEVYFAPYVTLMESGDEVSLL”, the “soluble on expression in E. coli” value was “not soluble”.
For “GPGSMLDAATGKSKGFGFVLFDEEEKGAKAYKALNRKMTRACGHSFTLVIYPSNHNGKIFTEESNALYIRNIPISIGQEKMERFLRTFGNLIYFAMREDHYGNPVWVVYAEYETVDDAKNALAKLHGNNTYFHGSVPILAKFEDSDDAKKERRRRRDGMQTHDRTAGAFFRHRSATTRTLDRFTPLPRR”, the “soluble on expression in E. coli” value was “not soluble”.
In the case of “GPGSMLLPRTDSHDPDANDADPRSSSSAPSVSAPALSFTTTADALASTPLSNTNPCAAYTWLPDTRSTAPPDATTRALAYNAYSPPSTAASSATPPPTSSSTAPSTTTVRPPVITVTRATPDTTSTDRTSRRPDSTSTGAYGEDCEPGRYTSGVDLAATSRESVTVSTDPAGNVPVSTSAPFSAST”, the “soluble on expression in E. coli” value is reported as “soluble”.
For “GPGSMLRCNISQRVPTHPVVSVKSGLVFERSLVEKYVDEHGRCPVTGDPLRKEDLITAQGAAPDASIASSGSLGAASVPTLLERLQVEWEGVALEQFSLRQQVTQLQLELAHALQQYDAACRVIARLSKELDSLRGGKAVAAEETDKGPAVVVVPAPVLRRMDAAEAAERQARKQRKAAAGSTAATPSQLTEEAQWVATPSSSASASSARSAVRVAAAADASSSGVFVSAVTGDHAIVRYSPDGFSEEARGIGHTATVHTLASQPGDILLSAAEDLTVRVWSTKGAALTVMHTLRYASGVVAMSQRTVGGAYMLCGAGDGVLTLSDLESGAHVVATAPLTLDTTSGALTCVELHPYASLAAVAFQPTELQLWDAREMRADTFISHVRGTAPRTHICSASFSADCVSLAAGLTDGSVYVWDLRQVLAPVAVLPPSADAVPATVRYAPDGRSLVVGGHGVTLYDCARLSASSTAVEAVATAGLKASAVCDVCWTTSGTDVLCGSVDGVVRLYSTAAGAT”, the “soluble on expression in E. coli” value was “soluble”.
With “GPGSMLRSLFGRPSLAVLNNYGHMARPASPLLCSQRGVFADRVRAGMILKVDKRYYRVLANTRSQKGQNAASFNIKLTEVGTGRKKEVTAGHGHDFAEARAERVRLLFSGFDDDDMACFVYPEHSSDAGKEVNIPGDSLPELQQKFLCCGMPVDVLHIMPDDDESPNEKDIWSEVVMPSNYTYTVEKLTLKGMYKMAAFVECDGIIGVNDSVQVNDKVKVVIKPDGTAAFGGRAT” the “soluble on expression in E. coli” value was “not soluble”.
For “GPGSMLSRIKRQQEEAQAATRSGGESAINQPGQKESMAVLRLKNDLDNLDGICSKVVIPDPDNMLRMKVTVRPSRPSIWHGGFFDFLLEFREEYPYEGPRVRYVGPNRVWHPNIEGSEFAEKEGMEKASRKTEWSVCLSFQTDWKPTFSLRDVIIMIELLFQDPNPDDPLHGTSKQAAQMMKDDPVRFRTKARYWMSGHYID”, the “soluble on expression in E. coli” value was “soluble”.
In the case of “GPGSMNCDQSPEAPCIVYICKLIDTQYLVGRVVGSVENHDGAFIGFGRVYSGRLRAGQPVYVHSDGVVVEATVGSVYLFRGAGLEETSEVSAGFLCGVGGLTPCITKYATISSVPNMPPFKPLVLQSTSIVRLSVFPKDPRSLQELERGLRLLYKVDPQVEVSMLPTGEHVIGTAGEVHAERCLKDLIDTFAQVEVVASEPLVSFRETIVSNLSAKPKPHTASLMDGAFHVTLQARPLPAEVLELIKDDGKNSGNNPQLLRQAVAALAEHRRFSADVKNGVVSSGPSRLGFLGAVLLANFDGTADPVACWATLQDWKESVVAGFQAACESGPMAQEPLYGVAFVVTNIFVDADSDISGGMVLPSVREACRAAMKLHPRRLVEPVYECTVYSSGFTQGKIYASLSRRRSEIVEEVPNEGSDLFYIRCWLPAVEAFGLQDELRVQTQGASTAQLQMSHWEVIDADPYFVPTTKEEFEEHGAEVATKNIAEQLLERIMRRKGLYRERVVENAEKQKFSLKGA”, the “soluble on expression in E. coli” value is reported as “not soluble”.
For “GPGSMNPYYAAPPPPPQQQQSRPSVDLDDLFGGPTAANEHKPFHAAPGEPAPPSYDALNGGYSSAPPPAHHAAASEPQQSHNGNISGNQSLYYGAAHQQQQQQQSYGVPAAVPASASPYGMSSPPPAFSSSSSITPGTAPPLQPQPQQQQYGAYPAMPASGMAPPAPPLQQQPPQVYVQPQPQPQPMPGPVHQQQQSFAQNSSSSVSPSGAAAVAGPTAAAGVGSGAASSRSAEEEDRLQLERIIRLRRELELEQEREQRKKEELQTWGCPICTFRNKLNEVKCEMCGSTRPGYTAPASTEPPAQHQQQQHQPRPAATPSQVNAGVTDWQCGMCLAPNEAHAERCKVCYAYRSSGIPVPTASPSGAAANANHNGVVSNTPFTTNWKCSVCGEVNPPSKANCKVCSGFQRNGTAVTDAVPAPSTGSGHGAQATSSADPPLPTVWSCSVCTFENSVSAAVCKACESGQRPRHLAPKRDKEKSASSKQHDSRGSGAKDGGGDGEKKCSSSKSQWPCGTCTFLNPIGRKKCDMCGAKRPESYAAEADTTEARAAAKQEAQDDAEEVAWQDDDSVTECNNCHTTFTFLIRRHHCRLCGYVFCAHCSSYSVPLTMGSLPQRVCVNCYKARLEEEKKTKKARRWLDS”, the “soluble on expression in E. coli” value was “soluble”.
In the case of “GPGSMNRDPQNALLLEQMAQKTKRLLLQRSPSTVNGIRSFSRSLGIADDLGSTQVTAEELQHALQENNVSLEEHELQNIFTVLDRTGKGTIDPTDFIAVMCNNLGPLRKVWLRRVWRMFTKDPDDGSVQVCELQRQFIAEGHPAVVRHETTAAEVRKDFESAFNESTNPDGKISAQEFAEYYAGVSVSCSNDESFVALLRGVWPLPGVSRDFSLSLAKGEAQYQGSYHTEQSLAEKTAVASREAVRSALMRMIRCDHAPVALSSGAAARALCLSLAQADEAGSGFVSEAVFVGALRTHRLYVPNTSVLECLDTNGDGTVDIKYYEELLLPSPSAARLMLLARLWSRCFENKDAAYRVPVQDLHRKYHASSPADKDAFLTAWDVRTAVGGKVELEELVQWYVPQSAAVQRDKDFEALLHRQWGKYDE”, the “soluble on expression in E. coli” value is reported as “soluble”.
